Laboratory results taken from the nanobody polyreactivity screen of Harvey et al. (2022).

Assay: yeast display, Sf9 membrane polyspecificity reagent, FACS + sequencing; frameworks hold sequencing errors
How it was run: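 Galactose induction of a Saccharomyces cerevisiae BJ5465 synthetic nanobody display library ran 36–48 hours. The cells were then stained for 1 hour at 4 °C with 10% biotinylated, detergent-solubilized Sf9 membrane reagent, pulled down on streptavidin microbeads and FACS-sorted into low and high (top ~1%) gates on expression and reagent-binding fluorescence. Labels for polyreactivity follow the gate of origin.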

| Sequence | polyreactivity (PSR sort gate) |
| --- | --- |
| QVQLVESGGGLVQAGGSLRLSCAASGRTFRYYAMGWYREAPGKERELVAAISSSGDRTYYADSVKGRFTISRDNAKNTVYVQMNSLKPEDTAVYYCAKDSYRRYWGQGTQVTVSS | high polyreactivity |
| QVQLVESGGGLVQAGGSLRLSCAASGRTFRYYAMGWYRKAPGKERELVATISKSGGSTYYADSVKGRFTISRDNAKNTVYLQMNSLKPEDTAVYYCAAVGPYRWYDYWGQGTQVTVSS | high polyreactivity |
| QVQLVESGGGLVQAGGSLRLSCAASGRTFRYYAMGWYRPAPGKERELVAAITISSGSTYYADSVKGRFTISRDNAKNTVYLQMNSLKPEDTAVYYCAATRRYHFDYWGQGTQVTVSS | high polyreactivity |
| QVQLVESGGGLVQAGGSLRLSCAASGRTFRYYAMGWYRQAPGKEREFVAAITSRSSRTYYADSVKGRFTISRDTAKNTVYLQMNSLKPEDTAVYYCARGSELGYYAWVYYWGQGTQVTVSS | high polyreactivity |
| QVQLVESGGGLVQAGGSLRLSCAASGRTFRYYAMGWYRQAPGKERELVAAISSSGDRTYYADSVKGRFTISRDNAKNTVYLQMNSLKPEDTAVYYCAADRGARGDYWGQGTQVTVSS | high polyreactivity |
| QVQLVESGGGLVQAGGSLRLSCAASGRTFRYYAMGWYRQAPGKERELVAAISYSGGSTYYADSVKGRFTISRDNAKNTVYLQMNSLKPEDTAVYYCAAGPWHYKYSLRGWGYYWGQGTQVTVSS | high polyreactivity |
| QVQLVESGGGLVQAGGSLRLSCAASGRTFRYYAMGWYRQAPGKERELVAAITGSGGSTYYADSVKGRFTISRDNAKNTVYLQMNSLKPEDTAVYYCATRWALRWRGGYWGQGTQVTVSS | high polyreactivity |
| QVQLVESGGGLVQAGGSLRLSCAASGRTFRYYAMGWYRQAPGKERELVAAITSGGSTYYADSVKGRFTISRDNAKNTVYLQMNSLKPEDTAVYYDYWGQGTQVTVSS | low polyreactivity |
| QVQLVESGGGLVQAGGSLRLSCAASGRTFRYYDMGWYRQSPGKERELVARISISGAGTYYADSVKVRFTISRDNAKNNVYLQMNSLKPEDTAVYYCAADLFWWQKTNSGGDYWGQGTQVTVSS | low polyreactivity |
| QVQLVESGGGLVQAGGSLRLSCAASGRTFRYYTMGWYRPAPGKEREFVSSISWNGGSTYYADSVKGRFTISRDNAKNTVYLQIKSLKPEDTAVYYCSADDPYRVYRGPYGYWGQCTQVTVSS | high polyreactivity |
| QVQLVESGGGLVQAGGSLRLSCAASGRTFRYYTMGWYRQAPGKEREFVAAISSTGGTYYADSVKGRFTISRDNAKNTVYLQMNCLIPEDTAVYYCAATFIQVVVNVQLYDYDYWGQGTQVTVSS | low polyreactivity |
| QVQLVESGGGLVQAGGSLRLSCAASGRTFRYYTMGWYRQAPGKEREFVAAISSTGGTYYADSVKGRFTISRDNAKNTVYLQMNSLKPEDTAVFYGAATFIQVVVNGQLYDYDYWGQGTQVTVSS | low polyreactivity |
| QVQLVESGGGLVQAGGSLRLSCAASGRTFRYYTMGWYRQAPGKERELVAAINDSGDITYYADSVKGRFTISRDNAKNTVSLQMNSLKPEDTAVYYCAASAAYYGFYKSVTYDYWGQGTQVTVSS | low polyreactivity |
| QVQLVESGGGLVQAGGSLRLSCAASGRTFRYYTMGWYRQAPGKERELVAAISRGGRTYYADSVKGRFTISRDNAKNTVYLQMNSLKPEDTAVYYCAAQLFREYYYWGQGTQVTVSS | high polyreactivity |
| QVQLVESGGGLVQAGGSLRLSCAASGRTFSANAMGWYRQAPGKERELVAGITSRGGGTYYADSVKGRFTISRDNAKNTVYLQMNSLKPEDTAVYYCAAPYNGGGVHSYWEYDYWGQGTQVTVSS | high polyreactivity |
| QVQLVESGGGLVQAGGSLRLSCAASGRTFSAYAMVWYRQAPGKERELVAAISRRGGSTYYADSVKGRFTISRDNAKNTVYLQMKSLKPEDTAVYYCAADVYKQYGYYFWGQGTQVTVSS | high polyreactivity |
| QVQLVESGGGLVQAGGSLRLSCAASGRTFSDYTMGWYRQAPGKERELFAAISGSVVNTYYADSVKGRFTISRDNAKNTVYLQMNSLKPEDTAVYYCAKDRIFYHYALYRWRVESYYWGQGTQVTVSS | low polyreactivity |
